# Patent US20260209318A1 (NATIONAL UNIVERSITY OF SINGAPORE, published 2026)
# What was measured:
# [1] = biological target: SARS-CoV-2 B.1.351 (beta) RBD (SARS-CoV-2 B.1.351 (beta), UniProt P0DTC2 319-541); test: multiplex sVNT, RBD-coated beads, PE-hACE2 as competitor
# [2] = biological target: SARS-CoV-2 B.1.617.2 (delta) RBD (SARS-CoV-2 B.1.617.2 (delta), UniProt P0DTC2 319-541); test: as above
# [3] = biological target: SARS-CoV-2 B.1.1.529.1 (BA.1) RBD (SARS-CoV-2 B.1.1.529.1 (BA.1), UniProt P0DTC2 319-541); test: as above
# [4] = biological target: SARS-CoV-2 B.1.1.529.5 (BA.5) RBD (SARS-CoV-2 B.1.1.529.5 (BA.5), UniProt P0DTC2 319-541); test: as above
# SARS-CoV-2 XBB.1 RBD = SARS-CoV-2 XBB.1 RBD (SARS-CoV-2 XBB.1, UniProt P0DTC2 319-541); test: as above
# BQ.1.1 spike protein [5] = biological target: T1, BQ.1.1 spike protein (SARS-CoV-2 variant BQ.1.1, UniProt P0DTC2 14-1273); test: cell-based or functional assay
# XBB.1 spike protein = XBB.1 spike protein (SARS-CoV-2 variant XBB.1, UniProt P0DTC2 14-1273); test: cell-based or functional assay
# BQ.1.1 spike protein [6] = biological target: T1, BQ.1.1 spike protein; test: pVNT (FIG. 1E, 1F, 2A, 3 cited); no direct binding assay described
binder,measurement,setting,value
"SS6V11-E7 (antibody, V domains shown) VH: QVQLQESGPGLVKPSETLSLTCTVSGGFIGPHYWSWVRQPPGKGLEWIGYIYISGSTNYNPSLKSRLTISVDMSKSQFSLTLSSATAADTAVYYCARGGGYLETGPFEYWGQGTLVTVSS VL: DIVMTQSPLSLPVTPGEPASISCRSSQSLLQNNGYNYLAWYLQKPGQSPQLLIYLSSTRASGVPDRFSGSGSGTDFTLKISRVEAEDVGVYYCMQSLQIPGTFGQGTRLEIK",binding result,[1],binds
same,binding result,[2],binds
same,binding result,[3],binds
same,binding result,[4],binds
same,binding result,SARS-CoV-2 XBB.1 RBD,binds
"Ab46 (10x-L8N-c63) (antibody, V domains shown) VH: QVHLVQSGAEVKKPGSSVKVSCKASGGTFSSHTVSWVRQAPGQGLEWMGRIIPPFGIVNYAQKFQGRVTITADESTSTAYMELSSLSSEDTAVYYCARSNVVVVTEAGWFDPWGQGTLVTVSS VL: DIQMTQSPSSVSASVGDRVTITCRASQGISSSLAWYQQKPGKAPKVLIFDASTLQSGVPSRFSGSGSGTDFTLTISNLRPEDFATYYCQQAHSFPFTFGPGTKVDIK",IC50 (pVNT),BQ.1.1 spike protein [5],≤ 550 ng/ml
"Ab1 (B11.2) (antibody, V domains shown) VH: EVQLVESGGGLVQPGGSLRLSCAASEIIVSRNYMTWVRQAPGKGLEWLAVLYAGGSSFYADSVKGRFTISRDNSKNTLFLQMNSLRAEDTAVYYCARDLSLSGGFDYWGQGALVTVSS VL: DIQLTQSPSFLSASVGDRVTITCRASQGISNYLAWYQQNPGKAPKLLIYAVSTLHSGVPSRFSGSGSGTEFTLTISSLQPEDFATYYCQHLNTDSCTFGQGTKLEIK",IC50 (pVNT),BQ.1.1 spike protein [5],≤ 300 ng/ml
same,concentration required to effectively neutralize (pVNT),BQ.1.1 spike protein [5],16.5 ng/ml
same,concentration required to effectively neutralize (pVNT),XBB.1 spike protein,11.6 ng/ml
"Ab2 (H12.2) (antibody, V domains shown) VH: EFQLVESGGRLVRPGGSLRLSCVASEIIVSRNYMSWIRQAPGKGLEWVSILYAGGTTYYADSVKGRFTISRDNSKNTLYLQLNSLRVEDTAIYYCVRPIVGGRGGMDVWGQGTTVTVSS VL: DIQMTQSPSSLSASVGDRVTITCQASQDINKYLNWYQQKPGKAPKLLIYDASNLEPGVPSRFSGSGSGTDFVFTITSLQPEDIATYYCHYYDDVPYTFGQGTQLEIK",IC50 (pVNT),BQ.1.1 spike protein [5],≤ 300 ng/ml
same,concentration required to effectively neutralize (pVNT),BQ.1.1 spike protein [5],16.6 ng/ml
same,concentration required to effectively neutralize (pVNT),XBB.1 spike protein,8.5 ng/ml
same,times less than the concentration of E7,XBB.1 spike protein,~40 times
same,binding result,SARS-CoV-2 XBB.1 RBD,binds
"Ab5 (10x-L8N-c25) (antibody, V domains shown) VH: DFQLVESGGGLVRPGGSLRLSCVASEITVSRNYMSWIRQAPGKGLEWVSIIYPGGTTYYADSVKGRFTISRDNSKNTMYLQLNSLRPEDTAIYYCVRPIVRGGGGMDVWGQGTTVTVSS VL: DIQMTQSPSSLSASVGDRVTITCQASQDINKYLNWYQQKPGKAPKLLIYDATNLEPGVPSRFSGSGSGTDFVFTITSLQPEDIATYYCQYYDDVPYTFGQGTQLEIK",IC50 (pVNT),BQ.1.1 spike protein [5],≤ 300 ng/ml
same,concentration required to effectively neutralize (pVNT),BQ.1.1 spike protein [5],57.5 ng/ml
same,times less than the concentration of E7,BQ.1.1 spike protein [5],~10 times
same,concentration required to effectively neutralize (pVNT),XBB.1 spike protein,40.8 ng/ml
same,times less than the concentration of E7,XBB.1 spike protein,~8 times
"Ab47 (10x-L8N-c64) (antibody, V domains shown) VH: QVQLVQSGAEVKKPGSSVKVSCEASGDTFSRYAITWVRQAPGQGLEWMGRIIPMFGSANYAQKFQGRVSFTADKSTSTASMELSSLRSEDTAVYYCATSPYYSDSGGYYCDYWGQGSLVTVSS VL: DIQMTQSPSSLSASVGDRVTITCRASQGISNYLAWYQQKPGKAPKLLLYGASRLQSGVPSRFSGSGSGTDYTLTISSLQPEDFATFYCQQYYSAPRTFGQGTKVEIK",IC50 (pVNT),BQ.1.1 spike protein [5],≤ 550 ng/ml
"LyCov-1404 (bebtelovimab) (antibody, V domains shown) VH: QITLKESGPTLVKPTQTLTLTCTFSGFSLSISGVGVGWLRQPPGKALEWLALIYWDDDKRYSPSLKSRLTISKDTSKNQVVLKMTNIDPVDTATYYCAHHSISTIFDHWGQGTLVTVSS VL: QSALTQPASVSGSPGQSITISCTATSSDVGDYNYVSWYQQHPGKAPKLMIFEVSDRPSGISNRFSGSKSGNTASLTISGLQAEDEADYYCSSYTTSSAVFGGGTKLTVL",binding result,BQ.1.1 spike protein [6],no binding
"Ab50 (10x-L8N-c84) (antibody, V domains shown) VH: QVQLVQSGAAVKKPGSSVKVSCEASGGTFSRFAVNWVRQAPGQGLEWMGRIIPLFAIANYPQRFQGRVIMSADRSTNITYMELSRLTSEDTAVYYCAREIDTVIDPAMDVFHGMEVWGQGTTVIVSS VL: QSVLTQPPSASGTPGQRVTISCSGRSSNIGSNYVHWYQQLPGTAPKLLIYRNNQRPSGVPDRFSGSKSGTSASLAISGLRSEDEADYYCAGWDDSLSGAVFGGGTKLSVL",IC50 (pVNT),BQ.1.1 spike protein [5],≤ 550 ng/ml
"Ab49 (10x-L8N-c73) (antibody, V domains shown) VH: QVQLVQSGAEVKKPGSSVKVSCKASGGTFTTYAIAWVRQAPGQGLEWMGRIIPTLDNPNYAQKFQGRVSITADKSTGTSYMELRSLRSDDTAVYYCAHVSYDSSGPHLSWYFNLWGRGTLITVSS VL: DIQMTQSPSTLSASVGDRVTITCRASQSIPSRLAWYQHKPGEAPKLLIYEASTLESGVPSRFSGSGSGTEFTLTITSLQPDDFATYFCQGWNAFGGGTKVEIK",IC50 (pVNT),BQ.1.1 spike protein [5],≤ 550 ng/ml
"Ab51 (10x-L8N-c86) (antibody, V domains shown) VH: EVQLVESGGGLVKPGESLRLSCAASGFTFSSSSLNWVRQAPGKGLEWVSSISISGDYTYYADSVKGRFTISRDNGKNSVYLQMDRLRVEDTAMYYCARDRFGFYDMLAHSYNVGFFQSWGQGTLVAVSS VL: DIRMTQSPSSLSASVGDSVTITCRASQDITNYLAWFQQKPGKAPKSLIYSASILQSGVPSKFSGSGSGTDFTLTISSLQPEDFATYYCQQYLTYPITFGQGTRLEIK",IC50 (pVNT),BQ.1.1 spike protein [5],≤ 550 ng/ml
"Ab44 (10x-L8N-c53) (antibody, V domains shown) VH: QVQLQQSGAEVKKPGSSVKVSCESSGGTFTSHAINWVRQAPGQRLEWMGRIIPVLGVAAYAQKFQGRVTLTADKFTSTAYMELSSLRSEDTAVYFCARSAYNYDSSGYHFDYWGQGTLVLVSS VL: DIQMTQSPSTLSASVGDRVTITCRASQSISNWLAWYQQKPGTAPKLLIFKASTLQSGVPSRFSGSGSGTEFTLTISSLQPDDFATYHCQQYHSSRSFGQGTKVEIK",IC50 (pVNT),BQ.1.1 spike protein [5],≤ 550 ng/ml
"Ab43 (10x-L8N-c42) (antibody, V domains shown) VH: EVQLVESGGGLVKPGGSLRLSCAASGFTFSRHTMNWVRQAPGKGLEWVSSIGGSTPLSFYAESVKGRFSISRDNAKSSLFLQMSSLRADDTAVYYCVRDSIASVTTLFDLWGRGTVVTVSS VL: DIQMTQSPSSLSASVGDRVTITCRASQTIRNYINWYQQRPGKAPRLLIYDASTLQSGVPSRFSGGGSGTDFTLTISSLEPEDFATYYCQQSYVSPPEDSFGQGTKLEIK",IC50 (pVNT),BQ.1.1 spike protein [5],≤ 550 ng/ml
"Ab52 (10x-L8N-c89) (antibody, V domains shown) VH: QVQLVQSGSEVKKPGSSVKVSCRASGDTFSSHSLSWVRQAPGQGLEWMGRIVPMFGITNYAQNFQGRVTFTADKSTSTAYMELSSLRSEDTAVYYCARAGTMITFGGLTDDGQLNWFDPWGQGTLVTVSS VL: DVVLTQSPLSLSVTLGQPASISCRSSQSLEYSDGDTYLNWFHQRPGQSPRRLIYKVSNRDSGVPDRFSGSGAGTDFTLKISKVEAEDVGVYYCMQGTNWPPNFGPGTKVDIK",IC50 (pVNT),BQ.1.1 spike protein [5],≤ 550 ng/ml
"Ab41 (10x-L8N-c39) (antibody, V domains shown) VH: QVQLVQSGAEVKKPGASVKVSCKGSGYTFTDYGISWVRQAPGQGLEWMGWIRAYNGNTDYAQKFQGRVTMTRDTSTTTAYMELRSLRSDDTAVYFCALNLIAAAATPFDHWGQGTLVTVSS VL: EIVLTQSPGTLSLSRGERATLSCRASQSVSSSYLAWYQQKRGQAPRLLIYGATSRATGIPDRFSGSGSGTDFTLTISRLEPEDFAVYYCQHYGSSPPPFGGGTKVEIR",IC50 (pVNT),BQ.1.1 spike protein [5],≤ 550 ng/ml
"Ab48 (10x-L8N-c72) (antibody, V domains shown) VH: QVQLQQWGAGLLKPSETLSLTCTVYGGSISGYYWNWIRQPPGKGLEWIGEIDHSGNTNYNSSLKSRITIALDTSKKEISLKVTSVTAADTAVYYCARLDYYHYSQDAWGQGTTVTVSS VL: EIVLTQSPDFQSVTPKERVTITCRASQSIGASLHWYQLKPNQSPKLLIKYASQSISGVPSRFSGSGSGTDFTLTISSLEAEDAATYYCLQSSNLYSFGQGTKLEIK",IC50 (pVNT),BQ.1.1 spike protein [5],≤ 550 ng/ml
"Ab42 (10x-L8N-c41) (antibody, V domains shown) VH: EVQLLESGGGLVQPGGSLRLSCAGSGFTFSSYAMSWVRQAPGKGLEWVSSISSSGGLTFYADSVRGRSTISRDHSRNTLYLQMNSLRAEDTALYYCAREQGDSYDDYFDYWGQGTLVTVSS VL: DIQMTQSPSSLSASVGDRVTITCRASQGIRSSLAWYQQRPGKAPKLLLSAASILESGVPSRFSGSGSGTDYTLTINGLQPDDFATYYCQQYYVTPGITFGGGTKVEIR",IC50 (pVNT),BQ.1.1 spike protein [5],≤ 550 ng/ml
